The target of this assay is recombinant Human IL-8 (BD Pharmingen cat #554609) (human) (UniProt P10145). Nature of the assay: sandwich immunoassay on Capture Antibody 1 magnetic beads; potentiometric read-out of bound glucose oxidase conjugate after adding glucose; no potential without IL-8.
Sequence of recombinant Human IL-8 (BD Pharmingen cat #554609) (human) (P10145 28-99 limits assumed): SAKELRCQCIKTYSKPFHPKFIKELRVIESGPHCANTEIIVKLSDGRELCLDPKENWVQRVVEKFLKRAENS

Sequence of Capture Antibody 2, an anti-Mouse α-Human IL-8 Monoclonal Antibody (for ICC, BD Pharmingen cat #550419), conjugated to Glucose Oxidase from Aspergillus niger (P13006 23-605): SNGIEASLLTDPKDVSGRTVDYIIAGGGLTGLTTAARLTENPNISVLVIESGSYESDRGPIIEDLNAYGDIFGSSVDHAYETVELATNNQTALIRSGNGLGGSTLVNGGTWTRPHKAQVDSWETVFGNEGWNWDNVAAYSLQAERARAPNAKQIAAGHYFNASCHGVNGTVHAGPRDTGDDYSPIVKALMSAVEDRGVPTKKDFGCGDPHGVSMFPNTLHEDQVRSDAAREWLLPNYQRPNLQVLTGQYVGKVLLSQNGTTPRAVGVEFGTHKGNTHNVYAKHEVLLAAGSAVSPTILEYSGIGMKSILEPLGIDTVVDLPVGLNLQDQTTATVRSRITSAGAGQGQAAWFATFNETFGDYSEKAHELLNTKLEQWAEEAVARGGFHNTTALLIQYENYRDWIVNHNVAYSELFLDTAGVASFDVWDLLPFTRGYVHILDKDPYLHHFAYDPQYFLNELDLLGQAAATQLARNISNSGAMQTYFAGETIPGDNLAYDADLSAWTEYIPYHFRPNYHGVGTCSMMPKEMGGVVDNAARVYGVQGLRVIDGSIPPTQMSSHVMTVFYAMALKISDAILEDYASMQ

For “Capture Antibody 2, an anti-Mouse α-Human IL-8 Monoclonal Antibody (for ICC, BD Pharmingen cat #550419), conjugated to Glucose Oxidase from Aspergillus niger (from UniProt P13006 23-605)”, the potential was 1 to 55 mV.

(Values after patent US11385226.)
